Assay results reported in FireProtDB (doi:10.1016/j.jmb.2003.10.041).

B1: Bacteriorhodopsin, P02945 (parent)
chain: MLELLPTAVEGVSQAQITGRPEWIWLALGTALMGLGTLYFLVKGMGVSDPDAKKFYAITTLVPAIAFTMYLSMLLGYGLTMVPFGGEQNPIYWARYADWLFTTPLLLLDLALLVDADQGTILALVGADGIMIGTGLVGALTKVYSYRFVWWAISTAAMLYILYVLFFGFTSKAESMRPEVASTFKVLRNVTVVLWSAYPVVWLIGSEGAGIVPLNIETLLFMVLDVSAKVGFGLILLRSRAIFGEAEAPEPSAGDGAAATSD

Variants of: B1
Settings: Halobacterium salinarum (strain ATCC 700922 / JCM 11081 / NRC-1); pH 6; 25 °C; SDS; Absorbance; sodium phosphate 10 mM; reversible: yes (90%); structure 2BRD; whole UniProt chain shown

Variant	ddG of mutation (higher = less stable) [kcal/mol]
MLELLPTAVEGVSQAQITGRPEWIWLALGTALMGLGTLYFLVKGMGVSDPDAAKFYAITTLVPAIAFTMYLSMLLGYGLTMVPFGGEQNPIYWARYADWLFTTPLLLLDLALLVDADQGTILALVGADGIMIGTGLVGALTKVYSYRFVWWAISTAAMLYILYVLFFGFTSKAESMRPEVASTFKVLRNVTVVLWSAYPVVWLIGSEGAGIVPLNIETLLFMVLDVSAKVGFGLILLRSRAIFGEAEAPEPSAGDGAAATSD [K53A]	0.3
MLELLPTAVEGVSQAQITGRPEWIWLALGTALMGLGTLYFLVKGMGVSDPDAKKFYAITTLVPAIAFTAYLSMLLGYGLTMVPFGGEQNPIYWARYADWLFTTPLLLLDLALLVDADQGTILALVGADGIMIGTGLVGALTKVYSYRFVWWAISTAAMLYILYVLFFGFTSKAESMRPEVASTFKVLRNVTVVLWSAYPVVWLIGSEGAGIVPLNIETLLFMVLDVSAKVGFGLILLRSRAIFGEAEAPEPSAGDGAAATSD [M69A]	-1.4
MLELLPTAVEGVSQAQITGRPEWIWLALGTALMGLGTLYFLVKGMGVSDPDAKKFYAITTLVPAIAFTMYASMLLGYGLTMVPFGGEQNPIYWARYADWLFTTPLLLLDLALLVDADQGTILALVGADGIMIGTGLVGALTKVYSYRFVWWAISTAAMLYILYVLFFGFTSKAESMRPEVASTFKVLRNVTVVLWSAYPVVWLIGSEGAGIVPLNIETLLFMVLDVSAKVGFGLILLRSRAIFGEAEAPEPSAGDGAAATSD [L71A]	-0.3
MLELLPTAVEGVSQAQITGRPEWIWLALGTALMGLGTLYFLVKGMGVSDPDAKKFYAITTLVPAAAFTMYLSMLLGYGLTMVPFGGEQNPIYWARYADWLFTTPLLLLDLALLVDADQGTILALVGADGIMIGTGLVGALTKVYSYRFVWWAISTAAMLYILYVLFFGFTSKAESMRPEVASTFKVLRNVTVVLWSAYPVVWLIGSEGAGIVPLNIETLLFMVLDVSAKVGFGLILLRSRAIFGEAEAPEPSAGDGAAATSD [I65A]	1.4
MLELLPTAVEGVSQAQITGRPEWIWLALGTALMGLGTLYFLVKGMGVSDPDAKAFYAITTLVPAIAFTMYLSMLLGYGLTMVPFGGEQNPIYWARYADWLFTTPLLLLDLALLVDADQGTILALVGADGIMIGTGLVGALTKVYSYRFVWWAISTAAMLYILYVLFFGFTSKAESMRPEVASTFKVLRNVTVVLWSAYPVVWLIGSEGAGIVPLNIETLLFMVLDVSAKVGFGLILLRSRAIFGEAEAPEPSAGDGAAATSD [K54A]	1.6
MLELLPTAVEGVSQAQITGRPEWIWLALGTALMGLGTLYFLVKGMGVSDPDAKKFYAITTLVPAIAFTMYLSALLGYGLTMVPFGGEQNPIYWARYADWLFTTPLLLLDLALLVDADQGTILALVGADGIMIGTGLVGALTKVYSYRFVWWAISTAAMLYILYVLFFGFTSKAESMRPEVASTFKVLRNVTVVLWSAYPVVWLIGSEGAGIVPLNIETLLFMVLDVSAKVGFGLILLRSRAIFGEAEAPEPSAGDGAAATSD [M73A]	0.8
MLELLPTAVEGVSQAQITGRPEWIWLALGTALMGLGTLYFLVKGMGVSDPDAKKAYAITTLVPAIAFTMYLSMLLGYGLTMVPFGGEQNPIYWARYADWLFTTPLLLLDLALLVDADQGTILALVGADGIMIGTGLVGALTKVYSYRFVWWAISTAAMLYILYVLFFGFTSKAESMRPEVASTFKVLRNVTVVLWSAYPVVWLIGSEGAGIVPLNIETLLFMVLDVSAKVGFGLILLRSRAIFGEAEAPEPSAGDGAAATSD [F55A]	1.6
MLELLPTAVEGVSQAQITGRPEWIWLALGTALMGLGTLYFLVKGMGVSDPDAKKFYAITTLVPAIAFAMYLSMLLGYGLTMVPFGGEQNPIYWARYADWLFTTPLLLLDLALLVDADQGTILALVGADGIMIGTGLVGALTKVYSYRFVWWAISTAAMLYILYVLFFGFTSKAESMRPEVASTFKVLRNVTVVLWSAYPVVWLIGSEGAGIVPLNIETLLFMVLDVSAKVGFGLILLRSRAIFGEAEAPEPSAGDGAAATSD [T68A]	0.1
MLELLPTAVEGVSQAQITGRPEWIWLALGTALMGLGTLYFLVKGMGVSDPDAKKFYAITTAVPAIAFTMYLSMLLGYGLTMVPFGGEQNPIYWARYADWLFTTPLLLLDLALLVDADQGTILALVGADGIMIGTGLVGALTKVYSYRFVWWAISTAAMLYILYVLFFGFTSKAESMRPEVASTFKVLRNVTVVLWSAYPVVWLIGSEGAGIVPLNIETLLFMVLDVSAKVGFGLILLRSRAIFGEAEAPEPSAGDGAAATSD [L61A]	0.1
MLELLPTAVEGVSQAQITGRPEWIWLALGTALMGLGTLYFLVKGMGVSAPDAKKFYAITTLVPAIAFTMYLSMLLGYGLTMVPFGGEQNPIYWARYADWLFTTPLLLLDLALLVDADQGTILALVGADGIMIGTGLVGALTKVYSYRFVWWAISTAAMLYILYVLFFGFTSKAESMRPEVASTFKVLRNVTVVLWSAYPVVWLIGSEGAGIVPLNIETLLFMVLDVSAKVGFGLILLRSRAIFGEAEAPEPSAGDGAAATSD [D49A]	0.9
MLELLPTAVEGVSQAQITGRPEWIWLALGTALMGLGTLYFLVKGMGVSDPDAKKFYAITALVPAIAFTMYLSMLLGYGLTMVPFGGEQNPIYWARYADWLFTTPLLLLDLALLVDADQGTILALVGADGIMIGTGLVGALTKVYSYRFVWWAISTAAMLYILYVLFFGFTSKAESMRPEVASTFKVLRNVTVVLWSAYPVVWLIGSEGAGIVPLNIETLLFMVLDVSAKVGFGLILLRSRAIFGEAEAPEPSAGDGAAATSD [T60A]	1
MLELLPTAVEGVSQAQITGRPEWIWLALGTALMGLGTLYFLVKGMGVSDPDAKKFYAITTLVPAIAFTMYLSMLAGYGLTMVPFGGEQNPIYWARYADWLFTTPLLLLDLALLVDADQGTILALVGADGIMIGTGLVGALTKVYSYRFVWWAISTAAMLYILYVLFFGFTSKAESMRPEVASTFKVLRNVTVVLWSAYPVVWLIGSEGAGIVPLNIETLLFMVLDVSAKVGFGLILLRSRAIFGEAEAPEPSAGDGAAATSD [L75A]	-0.5
MLELLPTAVEGVSQAQITGRPEWIWLALGTALMGLGTLYFLVKGMGVSDPDAKKFYAIATLVPAIAFTMYLSMLLGYGLTMVPFGGEQNPIYWARYADWLFTTPLLLLDLALLVDADQGTILALVGADGIMIGTGLVGALTKVYSYRFVWWAISTAAMLYILYVLFFGFTSKAESMRPEVASTFKVLRNVTVVLWSAYPVVWLIGSEGAGIVPLNIETLLFMVLDVSAKVGFGLILLRSRAIFGEAEAPEPSAGDGAAATSD [T59A]	2.2
MLELLPTAVEGVSQAQITGRPEWIWLALGTALMGLGTLYFLVKGMGVSDPDAKKFYAATTLVPAIAFTMYLSMLLGYGLTMVPFGGEQNPIYWARYADWLFTTPLLLLDLALLVDADQGTILALVGADGIMIGTGLVGALTKVYSYRFVWWAISTAAMLYILYVLFFGFTSKAESMRPEVASTFKVLRNVTVVLWSAYPVVWLIGSEGAGIVPLNIETLLFMVLDVSAKVGFGLILLRSRAIFGEAEAPEPSAGDGAAATSD [I58A]	1.9
MLELLPTAVEGVSQAQITGRPEWIWLALGTALMGLGTLYFLVKGMGVSDPDAKKFYAITTLAPAIAFTMYLSMLLGYGLTMVPFGGEQNPIYWARYADWLFTTPLLLLDLALLVDADQGTILALVGADGIMIGTGLVGALTKVYSYRFVWWAISTAAMLYILYVLFFGFTSKAESMRPEVASTFKVLRNVTVVLWSAYPVVWLIGSEGAGIVPLNIETLLFMVLDVSAKVGFGLILLRSRAIFGEAEAPEPSAGDGAAATSD [V62A]	-0.7
MLELLPTAVEGVSQAQITGRPEWIWLALGTALMGLGTLYFLVKGMGVSDADAKKFYAITTLVPAIAFTMYLSMLLGYGLTMVPFGGEQNPIYWARYADWLFTTPLLLLDLALLVDADQGTILALVGADGIMIGTGLVGALTKVYSYRFVWWAISTAAMLYILYVLFFGFTSKAESMRPEVASTFKVLRNVTVVLWSAYPVVWLIGSEGAGIVPLNIETLLFMVLDVSAKVGFGLILLRSRAIFGEAEAPEPSAGDGAAATSD [P50A]	0.2
MLELLPTAVEGVSQAQITGRPEWIWLALGTALMGLGTLYFLVKGMGVSDPAAKKFYAITTLVPAIAFTMYLSMLLGYGLTMVPFGGEQNPIYWARYADWLFTTPLLLLDLALLVDADQGTILALVGADGIMIGTGLVGALTKVYSYRFVWWAISTAAMLYILYVLFFGFTSKAESMRPEVASTFKVLRNVTVVLWSAYPVVWLIGSEGAGIVPLNIETLLFMVLDVSAKVGFGLILLRSRAIFGEAEAPEPSAGDGAAATSD [D51A]	0.5
MLELLPTAVEGVSQAQITGRPEWIWLALGTALMGLGTLYFLVKGMGVSDPDAKKFYAITTLVAAIAFTMYLSMLLGYGLTMVPFGGEQNPIYWARYADWLFTTPLLLLDLALLVDADQGTILALVGADGIMIGTGLVGALTKVYSYRFVWWAISTAAMLYILYVLFFGFTSKAESMRPEVASTFKVLRNVTVVLWSAYPVVWLIGSEGAGIVPLNIETLLFMVLDVSAKVGFGLILLRSRAIFGEAEAPEPSAGDGAAATSD [P63A]	-0.1
MLELLPTAVEGVSQAQITGRPEWIWLALGTALMGLGTLYFLVKGMGVSDPDAKKFAAITTLVPAIAFTMYLSMLLGYGLTMVPFGGEQNPIYWARYADWLFTTPLLLLDLALLVDADQGTILALVGADGIMIGTGLVGALTKVYSYRFVWWAISTAAMLYILYVLFFGFTSKAESMRPEVASTFKVLRNVTVVLWSAYPVVWLIGSEGAGIVPLNIETLLFMVLDVSAKVGFGLILLRSRAIFGEAEAPEPSAGDGAAATSD [Y56A]	1.3
MLELLPTAVEGVSQAQITGRPEWIWLALGTALMGLGTLYFLVKGMGVSDPDAKKFYAITTLVPAIAFTMYLSMALGYGLTMVPFGGEQNPIYWARYADWLFTTPLLLLDLALLVDADQGTILALVGADGIMIGTGLVGALTKVYSYRFVWWAISTAAMLYILYVLFFGFTSKAESMRPEVASTFKVLRNVTVVLWSAYPVVWLIGSEGAGIVPLNIETLLFMVLDVSAKVGFGLILLRSRAIFGEAEAPEPSAGDGAAATSD [L74A]	-0.7
MLELLPTAVEGVSQAQITGRPEWIWLALGTALMGLGTLYFLVKGMGVSDPDAKKFYAITTLVPAIAATMYLSMLLGYGLTMVPFGGEQNPIYWARYADWLFTTPLLLLDLALLVDADQGTILALVGADGIMIGTGLVGALTKVYSYRFVWWAISTAAMLYILYVLFFGFTSKAESMRPEVASTFKVLRNVTVVLWSAYPVVWLIGSEGAGIVPLNIETLLFMVLDVSAKVGFGLILLRSRAIFGEAEAPEPSAGDGAAATSD [F67A]	1
MLELLPTAVEGVSQAQITGRPEWIWLALGTALMGLGTLYFLVKGMGVSDPDAKKFYAITTLVPAIAFTMYLAMLLGYGLTMVPFGGEQNPIYWARYADWLFTTPLLLLDLALLVDADQGTILALVGADGIMIGTGLVGALTKVYSYRFVWWAISTAAMLYILYVLFFGFTSKAESMRPEVASTFKVLRNVTVVLWSAYPVVWLIGSEGAGIVPLNIETLLFMVLDVSAKVGFGLILLRSRAIFGEAEAPEPSAGDGAAATSD [S72A]	-0.1
